Measured values published in patent US10766960 (dated 2020).

T1: FcgRIIa H (human, UniProt P12318)
T1 chain: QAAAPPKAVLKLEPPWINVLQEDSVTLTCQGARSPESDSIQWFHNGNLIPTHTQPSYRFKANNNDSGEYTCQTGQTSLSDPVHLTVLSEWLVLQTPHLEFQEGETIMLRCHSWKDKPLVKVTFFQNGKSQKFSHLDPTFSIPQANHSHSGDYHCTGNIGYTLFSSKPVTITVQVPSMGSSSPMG

T2: FcgRIa (human, UniProt P12314)
T2 chain: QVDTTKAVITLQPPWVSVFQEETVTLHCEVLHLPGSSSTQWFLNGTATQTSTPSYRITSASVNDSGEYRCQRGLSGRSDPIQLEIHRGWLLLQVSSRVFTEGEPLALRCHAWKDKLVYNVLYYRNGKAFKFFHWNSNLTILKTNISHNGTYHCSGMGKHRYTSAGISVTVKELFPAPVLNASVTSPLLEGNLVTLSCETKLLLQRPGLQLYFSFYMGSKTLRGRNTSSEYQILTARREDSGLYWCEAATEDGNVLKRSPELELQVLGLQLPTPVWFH

T3: FcgRIIa R (human, UniProt P12318)
T3 chain: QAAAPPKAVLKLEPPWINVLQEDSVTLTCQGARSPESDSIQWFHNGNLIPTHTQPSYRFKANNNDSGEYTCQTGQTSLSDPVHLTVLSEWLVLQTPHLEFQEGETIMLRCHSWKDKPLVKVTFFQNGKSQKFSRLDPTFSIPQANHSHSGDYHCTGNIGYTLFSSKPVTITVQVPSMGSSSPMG

T4: FcgRIIb (human, UniProt P31994)
T4 chain: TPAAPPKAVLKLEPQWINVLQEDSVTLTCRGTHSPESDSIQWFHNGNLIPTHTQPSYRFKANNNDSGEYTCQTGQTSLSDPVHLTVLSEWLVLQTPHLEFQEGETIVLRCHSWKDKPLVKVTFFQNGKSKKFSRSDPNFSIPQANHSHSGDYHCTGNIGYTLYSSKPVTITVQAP

B1: H240-Kn212/H240-Hl076/L73-k0 (antibody)
chain 1: QDQLVQSGAEVKKPGASVKVSCKASGFNIKDTYIQWVRQAPGQGLEWMGRIDPLRKQTKYREKFEGRVTITADTSTNTAYMELSSLRSEDTAVYYCVRSGREFDYWGQGTLVTVSSASTKGPSVFPLAPSSKSTSGGTAALGCLVKDYFPEPVTVSWNSGALTSGVHTFPAVLQSSGLYSLSSVVTVPSSSLGTQTYICNVNHKPSNTKVDKKVEPKSCDKTHTCPPCPAPETQWGPMVFLFPPKPKDTLMISRTPEVTCVVVDVSDEEPEVKFNWYVDGVEVHNAKTKPREEQYNATYRVVSVLTVLHQDWLNGKEYKCKVSNKALPAPIEKTISKAKGQPREPQVCTLPPSRDELTKNQVSLWCLVKGFYPSDIAVEWESNGQPENNYKTTPPVLDSDGSFFLYSKLTVDKSRWQQGNVFSCSVMHEALHNHYTQKSLSLSP
chain 2: QDQLVQSGAEVKKPGASVKVSCKASGFNIKDTYIQWVRQAPGQGLEWMGRIDPLRKQTKYREKFEGRVTITADTSTNTAYMELSSLRSEDTAVYYCVRSGREFDYWGQGTLVTVSSASTKGPSVFPLAPSSKSTSGGTAALGCLVKDYFPEPVTVSWNSGALTSGVHTFPAVLQSSGLYSLSSVVTVPSSSLGTQTYICNVNHKPSNTKVDKKVEPKSCDKTHTCPPCPAPELLGGPSVFLFPPKPKDTLMISRTPEVTCVVVDVSHEEPEVKFNWYVDGVEVHNAKTKPREEQYNSTYRVVSVLTVLHQDWLNGKEYKCKVSNDALPMPIEETISKAKGQPREPQVYTLPPSRCELTKNQVSLSCAVKGFYPSDIAVEWESNGQPENNYKTTPPVLDSDGSFFLVSKLTVDKSRWQQGNVFSCSVMHEALHNHYTQKSLSLSP
chain 3: DIQMTQSPSSLSASVGDRVTITCRASQDIHKYIAWYQQKPGQAPRLLIQYTSTLQPGVPSRFSGSGSGTDYTFTISSLQPEDIATYYCLQYEQLRTFGGGTKVEIKRTVAAPSVFIFPPSDEQLKSGTASVVCLLNNFYPREAKVQWKVDNALQSGNSQESVTEQDSKDSTYSLSSTLTLSKADYEKHKVYACEVTHQGLSSPVTKSFNRGEC
B2: H240-Kn184/H240-Hl068/L73-k0 (antibody)
chain 1: QDQLVQSGAEVKKPGASVKVSCKASGFNIKDTYIQWVRQAPGQGLEWMGRIDPLRKQTKYREKFEGRVTITADTSTNTAYMELSSLRSEDTAVYYCVRSGREFDYWGQGTLVTVSSASTKGPSVFPLAPSSKSTSGGTAALGCLVKDYFPEPVTVSWNSGALTSGVHTFPAVLQSSGLYSLSSVVTVPSSSLGTQTYICNVNHKPSNTKVDKKVEPKSCDKTHTCPPCPAPEEYWGPMVFLFPPKPKDTLMISRTPEVTCVVVDVSDEDPEVKFNWYVDGVEVHNAKTKPREEQYNATYRVVSVLTVLHQDWLNGKEYKCKVSNKDLPAPIEKTISKAKGQPREPQVCTLPPSRDELTKNQVSLWCLVKGFYPSDIAVEWESNGQPENNYKTTPPVLDSDGSFFLYSKLTVDKSRWQQGNVFSCSVMHEALHNHYTQKSLSLSP
chain 2: QDQLVQSGAEVKKPGASVKVSCKASGFNIKDTYIQWVRQAPGQGLEWMGRIDPLRKQTKYREKFEGRVTITADTSTNTAYMELSSLRSEDTAVYYCVRSGREFDYWGQGTLVTVSSASTKGPSVFPLAPSSKSTSGGTAALGCLVKDYFPEPVTVSWNSGALTSGVHTFPAVLQSSGLYSLSSVVTVPSSSLGTQTYICNVNHKPSNTKVDKKVEPKSCDKTHTCPPCPAPELLGGPSVFLFPPKPKDTLMISRTPEVTCVVVDVSHEEPEVKFNWYVDGVEVHNAKTKPREEQYNSTYRVVSVLTVLHQDWLNGKEYKCKVSNDALPKPIEETISKAKGQPREPQVYTLPPSRCELTKNQVSLSCAVKGFYPSDIAVEWESNGQPENNYKTTPPVLDSDGSFFLVSKLTVDKSRWQQGNVFSCSVMHEALHNHYTQKSLSLSP
chain 3: DIQMTQSPSSLSASVGDRVTITCRASQDIHKYIAWYQQKPGQAPRLLIQYTSTLQPGVPSRFSGSGSGTDYTFTISSLQPEDIATYYCLQYEQLRTFGGGTKVEIKRTVAAPSVFIFPPSDEQLKSGTASVVCLLNNFYPREAKVQWKVDNALQSGNSQESVTEQDSKDSTYSLSSTLTLSKADYEKHKVYACEVTHQGLSSPVTKSFNRGEC
B3: H240-Kn209/H240-Hl076/L73-k0 (antibody)
chain 1: QDQLVQSGAEVKKPGASVKVSCKASGFNIKDTYIQWVRQAPGQGLEWMGRIDPLRKQTKYREKFEGRVTITADTSTNTAYMELSSLRSEDTAVYYCVRSGREFDYWGQGTLVTVSSASTKGPSVFPLAPSSKSTSGGTAALGCLVKDYFPEPVTVSWNSGALTSGVHTFPAVLQSSGLYSLSSVVTVPSSSLGTQTYICNVNHKPSNTKVDKKVEPKSCDKTHTCPPCPAPEQQWGPMVFLFPPKPKDTLMISRTPEVTCVVVDVSDEEPEVKFNWYVDGVEVHNAKTKPREEQYNATYRVVSVLTVLHQDWLNGKEYKCKVSNKALPAPIEKTISKAKGQPREPQVCTLPPSRDELTKNQVSLWCLVKGFYPSDIAVEWESNGQPENNYKTTPPVLDSDGSFFLYSKLTVDKSRWQQGNVFSCSVMHEALHNHYTQKSLSLSP
chain 2: QDQLVQSGAEVKKPGASVKVSCKASGFNIKDTYIQWVRQAPGQGLEWMGRIDPLRKQTKYREKFEGRVTITADTSTNTAYMELSSLRSEDTAVYYCVRSGREFDYWGQGTLVTVSSASTKGPSVFPLAPSSKSTSGGTAALGCLVKDYFPEPVTVSWNSGALTSGVHTFPAVLQSSGLYSLSSVVTVPSSSLGTQTYICNVNHKPSNTKVDKKVEPKSCDKTHTCPPCPAPELLGGPSVFLFPPKPKDTLMISRTPEVTCVVVDVSHEEPEVKFNWYVDGVEVHNAKTKPREEQYNSTYRVVSVLTVLHQDWLNGKEYKCKVSNDALPMPIEETISKAKGQPREPQVYTLPPSRCELTKNQVSLSCAVKGFYPSDIAVEWESNGQPENNYKTTPPVLDSDGSFFLVSKLTVDKSRWQQGNVFSCSVMHEALHNHYTQKSLSLSP
chain 3: DIQMTQSPSSLSASVGDRVTITCRASQDIHKYIAWYQQKPGQAPRLLIQYTSTLQPGVPSRFSGSGSGTDYTFTISSLQPEDIATYYCLQYEQLRTFGGGTKVEIKRTVAAPSVFIFPPSDEQLKSGTASVVCLLNNFYPREAKVQWKVDNALQSGNSQESVTEQDSKDSTYSLSSTLTLSKADYEKHKVYACEVTHQGLSSPVTKSFNRGEC
B4: H240-Kn214/H240-Hl076/L73-k0 (antibody)
chain 1: QDQLVQSGAEVKKPGASVKVSCKASGFNIKDTYIQWVRQAPGQGLEWMGRIDPLRKQTKYREKFEGRVTITADTSTNTAYMELSSLRSEDTAVYYCVRSGREFDYWGQGTLVTVSSASTKGPSVFPLAPSSKSTSGGTAALGCLVKDYFPEPVTVSWNSGALTSGVHTFPAVLQSSGLYSLSSVVTVPSSSLGTQTYICNVNHKPSNTKVDKKVEPKSCDKTHTCPPCPAPEGQWGPMVFLFPPKPKDTLMISRTPEVTCVVVDVSDEEPEVKFNWYVDGVEVHNAKTKPREEQYNATYRVVSVLTVLHQDWLNGKEYKCKVSNKALPAPIEKTISKAKGQPREPQVCTLPPSRDELTKNQVSLWCLVKGFYPSDIAVEWESNGQPENNYKTTPPVLDSDGSFFLYSKLTVDKSRWQQGNVFSCSVMHEALHNHYTQKSLSLSP
chain 2: QDQLVQSGAEVKKPGASVKVSCKASGFNIKDTYIQWVRQAPGQGLEWMGRIDPLRKQTKYREKFEGRVTITADTSTNTAYMELSSLRSEDTAVYYCVRSGREFDYWGQGTLVTVSSASTKGPSVFPLAPSSKSTSGGTAALGCLVKDYFPEPVTVSWNSGALTSGVHTFPAVLQSSGLYSLSSVVTVPSSSLGTQTYICNVNHKPSNTKVDKKVEPKSCDKTHTCPPCPAPELLGGPSVFLFPPKPKDTLMISRTPEVTCVVVDVSHEEPEVKFNWYVDGVEVHNAKTKPREEQYNSTYRVVSVLTVLHQDWLNGKEYKCKVSNDALPMPIEETISKAKGQPREPQVYTLPPSRCELTKNQVSLSCAVKGFYPSDIAVEWESNGQPENNYKTTPPVLDSDGSFFLVSKLTVDKSRWQQGNVFSCSVMHEALHNHYTQKSLSLSP
chain 3: DIQMTQSPSSLSASVGDRVTITCRASQDIHKYIAWYQQKPGQAPRLLIQYTSTLQPGVPSRFSGSGSGTDYTFTISSLQPEDIATYYCLQYEQLRTFGGGTKVEIKRTVAAPSVFIFPPSDEQLKSGTASVVCLLNNFYPREAKVQWKVDNALQSGNSQESVTEQDSKDSTYSLSSTLTLSKADYEKHKVYACEVTHQGLSSPVTKSFNRGEC

Columns and labels:
Test in all cases: SPR
FcgRIIIa V = FcgRIIIa V (human, UniProt P08637)
FcgRIIa H = molecular target: T1, FcgRIIa H
FcgRIa = molecular target: T2, FcgRIa
FcgRIIIa F = FcgRIIIa F (human, UniProt P08637)
FcgRIIa R = molecular target: T3, FcgRIIa R
FcgRIIb = molecular target: T4, FcgRIIb

Chain of FcgRIIIa F (P08637 17-208): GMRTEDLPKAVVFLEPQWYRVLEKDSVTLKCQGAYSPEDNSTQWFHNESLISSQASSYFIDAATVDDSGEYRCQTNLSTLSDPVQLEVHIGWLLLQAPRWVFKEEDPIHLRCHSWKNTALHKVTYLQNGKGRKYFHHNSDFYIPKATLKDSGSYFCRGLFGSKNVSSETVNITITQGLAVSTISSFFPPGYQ
Chain of FcgRIIIa V (P08637 17-208 F176V): as the sequence (P08637 17-208) above, with F160V counted along it

Binder	Kd (FcgRIIIa V) [nM]	Kd (FcgRIIa H) [nM]	Kd (FcgRIa) [nM]	Kd (FcgRIIIa F) [nM]	Kd (FcgRIIa R) [nM]	Kd (FcgRIIb) [nM]
B1	0.58	230	0.094	2.1	640	5200
B2	0.34	70	0.16	2.2	27	150
B3	0.62	250	0.083	2.4	1200	7500
B4	0.8	330	0.061	3.4	1100	7100
